Patent US6379943, “High-efficiency Cre/loxp based system for construction of adenovirus vectors” (Merck & Co., Inc.)

Key:
[1] = target: Cre recombinase (Bacteriophage P1?) (UniProt P06956); test: cell_activity; conditions: plasmids lacking lox; 5 plaques in 293 without Cre, homologous recombination background
[2] = target: Cre recombinase (UniProt P06956 P06956:1-343); test: cell_activity; pCA36lox x pBHG10lox cotransfection; 168 plaques in 293Cre4 vs 4 in 293 (12 dishes each); conditions: tags: stably expressed in 293Cre4 cells; chain copies: 4; BamHI/BglII overhangs
Chain of Cre recombinase (P06956 whole entry, one chain of several): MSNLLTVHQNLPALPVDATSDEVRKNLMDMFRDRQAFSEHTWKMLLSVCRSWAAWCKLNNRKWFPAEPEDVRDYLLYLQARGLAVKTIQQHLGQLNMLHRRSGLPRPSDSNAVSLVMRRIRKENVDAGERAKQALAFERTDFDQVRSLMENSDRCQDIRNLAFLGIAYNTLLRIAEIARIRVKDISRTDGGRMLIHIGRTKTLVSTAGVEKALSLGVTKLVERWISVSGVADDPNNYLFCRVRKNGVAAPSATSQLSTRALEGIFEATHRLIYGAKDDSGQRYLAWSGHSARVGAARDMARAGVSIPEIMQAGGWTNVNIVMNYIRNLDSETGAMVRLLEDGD
Source text: The efficiency of Cre/lox mediated recombination was compared with that of homologous recombination, by measuring the numbers of virus plaques obtained from cotransfections of 293 cells versus the numbers obtained following cotransfections of 293Cre4 cells (see, for example, U.S. patent application Ser. No. 08/473,168, filed Jun. 7, 1995; see also WO96/40955, hereby incorporated by reference).
Coupled with the fact that the only infectious virus present in the transfected cell preparation are recombinants, rather than contaminating starting virus, the efficiency, cleanliness and convenience of this method in comparison to known methods represent significant advances in the art. Thus, with this new method it will be possible to reduce the amount of plasmid DNA used in cotransfections and reduce the number of dishes of 293 (293Cre) cells needed in cotransfections for rescue of viral vectors. It will also aid in the rescue of constructs which, for unknown reasons, might be otherwise difficult to rescue (e.g. rescue of vectors containing large foreign DNA inserts in E1 is often inefficient for reasons that are not known).

Chain of Cre recombinase (Bacteriophage P1?) (P06956 whole entry): as the sequence (P06956 whole entry, one chain of several) above

Molecule	activity (plaques (12 dishes)) [1]	activity [2]
no-lox plasmid pair pCA36:pBHG10	7	–
loxP linker AB3233/AB3234 (dsDNA) DNA 1: GATCCAATAACTTCGTATAGCATACATTATACGAAGTTATAAGTACTGAATTCG DNA 2: GATCCGAATTCAGTACTTATAACTTCGTATAATGTATGCTATACGAAGTTATTG	–	35 fold over homologous recombination
